Here are results for 32 sequences from the Immune Epitope Database (IEDB).

Test [1] addresses HLA-B*15:01. Nature of the test: IEDB peptide-MHC binding, purified MHC/competitive/radioactivity; filed as Kd, often an IC50 or EC50 that approximates it; ≥ and ≤ were set here for values at or beyond the usual limits of such assays.
The target of test [2] is HLA-A*69:01. Description: IEDB peptide-MHC binding, purified MHC/competitive/fluorescence; filed as Kd, often an IC50 or EC50 that approximates it; ≥ and ≤ were set here for values at or beyond the usual limits of such assays. Particulars: source organism: Homo sapiens.
In another test the target is HLA-B*51:01. The description is as above. Particulars: source organism: Homo sapiens.
The target of a further test is HLA-B*27:03. Described as above. Particulars: source organism: Homo sapiens.
Test [3] has as its target HLA-B*15:01. The description is as above. Particulars: source organism: Homo sapiens.
The target of test [4] is HLA-A*26:01. Described as above. Particulars: source organism: Homo sapiens.
For test [5], the target named is HLA-B*57:01. Described as above. Particulars: source organism: Homo sapiens.
In a further test the target is HLA-B*46:01. Described as above. Particulars: source organism: Homo sapiens.
The target of test [6] is HLA-A*11:01. Description: IEDB peptide-MHC binding, purified MHC/competitive/fluorescence; ≥ and ≤ were set here for values at or beyond the usual limits of such assays.
Test [7] concerns the target HLA-A*02:01. The test is described as above.
The next test addresses HLA-A*23:01. Description: IEDB peptide-MHC binding, purified MHC/competitive/radioactivity; filed as Kd, often an IC50 or EC50 that approximates it; ≥ and ≤ were set here for values at or beyond the usual limits of such assays. Particulars: source organism: Dengue virus 1 Brazil/97-11/1997.
The target of a further test is HLA-B*15:17. Description: IEDB peptide-MHC binding, purified MHC/direct/fluorescence; filed as Kd, often an IC50 or EC50 that approximates it; ≥ and ≤ were set here for values at or beyond the usual limits of such assays.
The next test concerns the target HLA-B*58:01. Described as above.
For test [8], the target named is HLA-B*57:01. The description is as above.
Test [9] deals with HLA-A*11:01. The description is as above. Particulars: source organism: Escherichia coli O157:H7.
The target of the next test is HLA-B*40:01. Described as above. Particulars: source organism: Escherichia coli O157:H7.
Test [10] concerns the target HLA-A*01:01. The test is described as above. Particulars: source organism: Escherichia coli O157:H7.
For the next test, the target named is HLA-A*31:01. The description is as above. Particulars: source organism: Escherichia coli O157:H7.
The target in test [11] is HLA-A*02:01. The test is described as above. Particulars: source organism: Escherichia coli O157:H7.
A further test concerns the target HLA-B*27:05. Described as above. Particulars: source organism: Escherichia coli O157:H7.
In test [12] the target is HLA-A*69:01. The description is as above. Particulars: source organism: Escherichia coli O157:H7.
The next test has as its target HLA-B*08:01. The test is described as above. Particulars: source organism: Escherichia coli O157:H7.
For test [13], the target named is HLA-B*15:01. The description is as above. Particulars: source organism: Escherichia coli O157:H7.
Test [14] deals with HLA-A*26:01. Described as above. Particulars: source organism: Escherichia coli O157:H7.
A further test deals with HLA-A*03:01. Described as above. Particulars: source organism: Escherichia coli O157:H7.
For a further test, the target named is HLA-B*44:02. The description is as above. Particulars: source organism: Escherichia coli O157:H7.
For test [15], the target named is HLA-B*07:02. Described as above. Particulars: source organism: Escherichia coli O157:H7.
Test [16] addresses HLA-A*24:02. Nature of the test: IEDB peptide-MHC binding, purified MHC/competitive/fluorescence; ≥ and ≤ were set here for values at or beyond the usual limits of such assays.
In another test the target is HLA-B*39:01. Description: IEDB peptide-MHC binding, purified MHC/direct/fluorescence; filed as Kd, often an IC50 or EC50 that approximates it; ≥ and ≤ were set here for values at or beyond the usual limits of such assays.
Test [17] addresses HLA-B*07:02. Description: IEDB peptide-MHC binding, purified MHC/competitive/radioactivity; filed as Kd, often an IC50 or EC50 that approximates it; ≥ and ≤ were set here for values at or beyond the usual limits of such assays. Particulars: source organism: Dengue virus 2 Jamaica/1409/1983.
Test [18] deals with HLA-A*01:01. The description is as above. Particulars: source organism: Dengue virus 3 Martinique/1243/1999.
A further test deals with HLA-A*30:02. Described as above.
In the next test the target is HLA-B*53:01. The test is described as above.
The target of test [19] is HLA-A*24:02. Described as above.
Test [20] concerns the target HLA-B*57:01. The description is as above. Particulars: source organism: Dengue virus 2 Jamaica/1409/1983.
The mark [21] stands for this setting: source organism: Zaire ebolavirus.
Setting [22] is: source organism: Vaccinia virus WR.
Setting [23] is: source organism: Dengue virus 4 Philippines/H241/1956.
Where [24] appears, read: source organism: Dengue virus 1 Brazil/97-11/1997.
[25] abbreviates: source organism: Vibrio parahaemolyticus.
Setting [26] is: source organism: Marburg virus - Musoke, Kenya, 1980.
Setting [27] is: source organism: Escherichia coli O157:H7.
The mark [28] stands for this setting: source organism: Dengue virus 2 Jamaica/1409/1983.
Where [29] appears, read: source organism: Sudan ebolavirus.
Where [30] appears, read: source organism: Dengue virus 3 Martinique/1243/1999.
Where [31] appears, read: source organism: Entamoeba histolytica HM-1:IMSS.
Setting [32] is: source organism: Burkholderia mallei.

MIKNLTQLF: the Kd with HLA-B*15:01 [1] (source organism: Vaccinia virus Copenhagen) was found to be 5.71 nM.
Turning to WMFRIRIIL, the dissociation constant (Kd) with HLA-A*69:01 [2], in the test with HLA-B*51:01, with HLA-B*27:03, with HLA-B*15:01 [3], with HLA-A*26:01 [4] and with HLA-B*57:01 [5] was not below 20000 nM each time. In the test with HLA-B*46:01, this sequence yielded a Kd not below 20000 nM.
For the sequence ATISTSPQS, the results for the IC50 in the test with HLA-A*11:01 [6] (setting [21]) and with HLA-A*02:01 [7] (setting [21]) were 17500 nM and not below 108000 nM, respectively.
Regarding KLRQIVAYF, the Kd with HLA-B*15:01 [1] (setting [22]) worked out at 7.59 nM.
As for TQVGTLALSL, the Kd with HLA-B*15:01 [1] (setting [23]) was 57.2 nM.
As to KLHSGKDVF, the Kd with HLA-B*15:01 [1] (setting [24]) was determined as 4.82 nM.
Turning to RVIQLSRKTF, the dissociation constant Kd with HLA-A*23:01 turned out to be 3290 nM; with HLA-B*15:01 [1] (setting [24]) it was 45.2 nM.
For the sequence YSLGQGPVW, the figures for the dissociation constant Kd with HLA-B*15:17 (setting [25]) and with HLA-B*58:01 (setting [25]) were not above 1 nM and 2.6 nM, respectively.
Turning to YGVKNLFDW, the Kd was 155 nM with HLA-B*15:17 (setting [26]), 38.3 nM with HLA-B*57:01 [8] (setting [26]) and not below 5000 nM with HLA-B*58:01 (setting [26]).
For KTTIKFHPW, the Kd with HLA-A*11:01 [9] was not below 20000 nM; with HLA-B*40:01, not below 20000 nM; with HLA-A*01:01 [10], not below 20000 nM; in the test with HLA-A*31:01, 333 nM; with HLA-A*02:01 [11], not below 20000 nM; with HLA-B*15:17 (setting [27]), 27.8 nM. The equilibrium dissociation constant (Kd) in the test with HLA-B*27:05, in the test with HLA-A*69:01 [12], with HLA-B*08:01, with HLA-B*15:01 [13], with HLA-A*26:01 [14] and in the test with HLA-A*03:01 was not below 20000 nM in each case. In addition, the dissociation constant Kd with HLA-B*44:02 was not below 20000 nM; with HLA-B*57:01 [8] (setting [27]) it was 215 nM; in the test with HLA-B*07:02 [15] it was not below 20000 nM; with HLA-B*58:01 (setting [27]), 47.5 nM.
In turn, GEESASSGK gave an IC50 with HLA-A*11:01 [6] (setting [21]) not below 314000 nM.
Take PVVLTGGTG: the values for the IC50 with HLA-A*02:01 [7] (source organism: Variola virus) and in the test with HLA-A*24:02 [16] (source organism: Variola virus) were not below 167000 nM and 69800 nM, respectively.
As to FHDSNVKNL, the equilibrium dissociation constant (Kd) with HLA-B*39:01 (source organism: Influenza A virus (A/chicken/Nakorn-Patom/Thailand/CU-K3/2004(H5N1))) turned out to be 168 nM.
On to SINNIDPHF, for which the dissociation constant (Kd) with HLA-B*15:01 [1] (setting [22]) was 12 nM.
As for RVMVMVGATM, the Kd in the test with HLA-B*15:01 [1] (setting [28]) turned out to be 2.14 nM; in the test with HLA-B*07:02 [17], 61.5 nM.
Turning to FHFFVHTLL, the dissociation constant Kd in the test with HLA-B*39:01 (source organism: Camelpox virus M-96) was determined as 52 nM.
In the case of FDAVLYYHM, the values for the IC50 with HLA-A*02:01 [7] (setting [21]) and with HLA-A*24:02 [16] (setting [21]) were not below 309000 nM and 12000 nM, respectively.
As to FIIKSSYVF, the Kd with HLA-B*15:01 [1] (setting [22]) came out at 3.23 nM.
For the sequence AFSMPLGVV, the IC50 in the test with HLA-A*02:01 [7] (setting [29]) was determined as 8990 nM; with HLA-A*24:02 [16] (setting [29]), 2820 nM.
In turn, STTLFKIDN returned an IC50 with HLA-A*11:01 [6] (setting [29]) not below 146000 nM.
Turning to LSRNSTHEMY, the Kd in the test with HLA-A*01:01 [18] turned out to be 291 nM; in the test with HLA-A*30:02 (setting [30]) it was 32.2 nM; with HLA-B*15:01 [1] (setting [30]), 48.2 nM.
GTNTTTEDH: in the test with HLA-A*11:01 [6] (setting [21]), the IC50 is not below 76900 nM.
LGKAVHQVF: in the test with HLA-B*15:01 [1] (setting [23]), the Kd came out at 477 nM.
For the sequence LMLLPTALAF, the equilibrium dissociation constant (Kd) worked out at 72.9 nM with HLA-A*23:01, 15600 nM with HLA-B*53:01 (setting [24]), 4450 nM in the test with HLA-A*24:02 [19] (setting [24]) and 0.82 nM in the test with HLA-B*15:01 [1] (setting [24]).
In the case of ISTLPTEQF, the results for the Kd with HLA-B*15:17 (setting [31]), in the test with HLA-B*57:01 [8] (setting [31]) and in the test with HLA-B*58:01 (setting [31]) were 6.5 nM, 238 nM and 2.2 nM, respectively.
In the case of RAMDTYHRW, the dissociation constant Kd with HLA-B*15:17 (setting [32]) worked out at 2.1 nM; with HLA-B*57:01 [8] (setting [32]), 48.8 nM; in the test with HLA-B*58:01 (setting [32]) it was 10.5 nM.
Consider AVLMLVAHY, for which the Kd with HLA-A*30:02 (setting [24]) came to 2.19 nM; with HLA-B*15:01 [1] (setting [24]) it was 51.2 nM.
FRAICTNGL: the dissociation constant (Kd) with HLA-B*39:01 (source organism: Escherichia coli O157:H7 str. EC869) was 10 nM.
As to KFRKSSFFV, the values for the IC50 with HLA-A*02:01 [7] (setting [29]) and with HLA-A*24:02 [16] (setting [29]) were 7760 nM and 449 nM, respectively.
Consider ITAAAWYLW, for which the Kd with HLA-B*53:01 (setting [28]) amounted to 174 nM; with HLA-A*24:02 [19] (setting [28]) it was 21.5 nM; in the test with HLA-B*57:01 [20], 0.477 nM; in the test with HLA-B*15:17 (source organism: dengue virus type 2), 6.7 nM.
In the case of NIREIEEHM, in the test with HLA-B*15:01 [1] (setting [22]), the Kd amounted to 234 nM.
In the case of RVIGYILFF, the equilibrium dissociation constant (Kd) with HLA-B*15:17 (setting [26]) came to 129 nM; with HLA-B*58:01 (setting [26]) it was 2040 nM.

One may read the Kd as a measure of binding affinity in units of concentration. One may read the IC50 as the concentration needed to halve the response being measured.
